Test results: US20220290165
Read-outs that look alike come from different tables or passages of the source.

B1: Trichoderma reesei pep5 (protein)
chain: MKFHAAALTLACLASSASAGVAQPRADEVESAEQGKTFSLEQIPNERYKGNIPAAYISALAKYSPTIPDKIKHAIEINPDLHRKFSKLINAGNMTGTAVASPPPGADAEYVLPVKIGTPPQTLPLNLDTGSSDLWVISTDTYPPQVQGQTRYNVSASTTAQRLIGESWVIRYGDGSSANGIVYKDRVQIGNTFFNQQAVESAVNISNEISDDSFSSGLLGAASSAANTVRPDRQTTYLENIKSQLARPVFTANLKKGKPGNYNFGYINGSEYIGPIQYAAINPSSPLWEVSVSGYRVGSNDTKYVPRVWNAIADTGTTLLLVPNDIVSAYYAQVKGSTFSNDVGMMLVPCAATLPDFAFGLGNYRGVIPGSYINYGRMNKTYCYGGIQSSEDAPFAVLGDIALKAQFVVFDMGNKVVGFANKNTNV
B2: Trichoderma reesei pep2 (protein)
chain: MQPSFGSFLVTVLSASMAAGSVIPSTNANPGSFEIKRSANKAFTGRNGPLALARTYAKYGVEVPKTLVDAIQLVKSIQLAKRDSATVTATPDHDDIEYLVPVKIGTPPQTLNLDFDTGSSDLWVFSSDVDPTSSQGHDIYTPSKSTSSKKLEGASWNITYGDRSSSSGDVYHDIVSVGNLTVKSQAVESARNVSAQFTQGNNDGLVGLAFSSINTVKPTPQKTWYDNIVGSLDSPVFVADLRHDTPGSYHFGSIPSEASKAFYAPIDNSKGFWQFSTSSNISGQFNAVADTGTTLLLASDDLVKAYYAKVQGARVNVFLGGYVFNCTTQLPDFTFTVGEGNITVPGTLINYSEAGNGQCFGGIQPSGGLPFAIFGDIALKAAYVIFDSGNKQVGWAQKK
B3: Trichoderma reesei pep3 (protein)
chain: MEAILQAQAKFRLDRGLQKITAVRNKNYKRHGPKSYVYLLNRFGFEPTKPGPYFQQHRIHQRGLAHPDFKAAVGGRVTRQKVLAKKVKEDGTVDAGGSKTGEVDAEDQQNDSEYLCEVTIGTPGQKLMLDFDTGSSDLWVFSTELSKHLQENHAIFDPKKSSTFKPLKDQTWQISYGDGSSASGTCGSDTVTLGGLSIKNQTIELASKLAPQFAQGTGDGLLGLAWPQINTVQTDGRPTPANTPVANMIQQDDIPSDAQLFTAAFYSERDENAESFYTFGYIDQDLVSASGQEIAWTDVDNSQGFWMFPSTKTTINGKDISQEGNTAIADTGTTLALVSDEVCEALYKAIPGAKYDDNQQGYVFPINTDASSLPELKVSVGNTQFVIQPEDLAFAPADDSNWYGGVQSRGSNPFDILGDVFLKSVYAIFDQGNQRFGAVPKIQAKQNLQPPQ
B4: Trichoderma reesei gap1 (protein)
chain: TVQSNWGGAILEGSGFTAASATVNVPRGGGGSNAAGSAWVGIDGASCQTAILQTGFDWYGDGTYDAWYEWYPEFAADFSGIDIRQGDQIAMSVVATSLTGGSATLENLSTGQKVTQNFNRVTAGSLCETSAEFIIEDFEECNSNGSNCQPVPFASFSPAITFSSATATRSGRSVSLSGAEITEVIVNNQDLTRCSVSGSSTLTCSYV

Columns and labels:
pepstatin A [1] = test system: pepstatin A
[2] = biological target: soybean trypsin inhibitor (SBTI) (UniProt P01070)
pepstatin A [3] = biological target: pepstatin A; remark: listed apart in the source

UniProt P01070, sequence (P01070 25-205): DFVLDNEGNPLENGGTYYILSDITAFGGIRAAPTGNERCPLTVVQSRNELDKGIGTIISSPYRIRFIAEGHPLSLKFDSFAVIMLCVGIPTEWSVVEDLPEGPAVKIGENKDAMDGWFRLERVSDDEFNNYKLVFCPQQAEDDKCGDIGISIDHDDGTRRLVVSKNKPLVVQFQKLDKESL

Row | Molecule | casein digestion by the SIP purified fractions at pH 5.5 (pepstatin A [3]) | also measured
1 | Trichoderma reesei pep4 |  | casein digestion by the SIP purified fractions at pH 5.5 (pepstatin A [1]): a large portion of the SIP protease activity was inhibited by pepstatin A
2 | Trichoderma reesei slp2 |  | casein digestion by the SIP purified fractions at pH 5.5 [2]: The SBTI and chymostatin were able to inhibit the SLP2 protease in the purified sample
3 | B1 | a large portion of the SIP protease activity was inhibited by pepstatin A | 
4 | B2 | a large portion of the SIP protease activity was inhibited by pepstatin A | 
5 | B3 | a large portion of the SIP protease activity was inhibited by pepstatin A | 
6 | B4 |  | casein digestion by the SIP purified fractions at pH 5.5 (LIP peptide): inhibited the protease activity slightly less compared to SIP inhibitor
